# Test results reported in US10919943B2, “Mutant proteins enabling agrochemical control of plant gene expression” (The Regents of the University of California, priority 2016, dated 2021).
# Where a chain is given by its changes, count along the chain named. Numbers in names are those of the source.
# B1: N151V: PYR1 mutant (protein, UniProt O49686 1-191, looked up, variant N151V)
# Abscisic acid receptor PYR1: MPSELTPEERSELKNSIAEFHTYQLDPGSCSSLHAQRIHAPPELVWSIVRRFDKPQTYKHFIKSCSVEQNFEMRVGCTRDVIVISGLPANTSTERLDILDDERRVTGFSIIGGEHRLTNYKSVTTVHRFEKENRIWTVVLESYVVDMPEGVSEDDTRMFADTVVKLNLQKLATVAEAMARNSGDGSGSQVT
# B2: T156Q: PYR1 mutant (protein, UniProt O49686 1-191, looked up, variant T156Q)
# Abscisic acid receptor PYR1: B1 Abscisic acid receptor PYR1 with V151N, T156Q
# B3: D155P: PYR1 mutant (protein, UniProt O49686 1-191, looked up, variant D155P)
# Abscisic acid receptor PYR1: B1 Abscisic acid receptor PYR1 with V151N, D155P
# B4: T156G: PYR1 mutant (protein, UniProt O49686 1-191, looked up, variant T156G)
# Abscisic acid receptor PYR1: B1 Abscisic acid receptor PYR1 with V151N, T156G
# B5: N151D: PYR1 mutant (protein, UniProt O49686 1-191, looked up, variant N151D)
# Abscisic acid receptor PYR1: B1 Abscisic acid receptor PYR1 with V151D
# B6: T156L: PYR1 mutant (protein, UniProt O49686 1-191, looked up, variant T156L)
# Abscisic acid receptor PYR1: B1 Abscisic acid receptor PYR1 with V151N, T156L
# B7: F159P: PYR1 mutant (protein, UniProt O49686 1-191, looked up, variant F159P)
# Abscisic acid receptor PYR1: B1 Abscisic acid receptor PYR1 with V151N, F159P
# B8: T156W: PYR1 mutant (protein, UniProt O49686 1-191, looked up, variant T156W)
# Abscisic acid receptor PYR1: B1 Abscisic acid receptor PYR1 with V151N, T156W
# B9: D155I: PYR1 mutant (protein, UniProt O49686 1-191, looked up, variant D155I)
# Abscisic acid receptor PYR1: B1 Abscisic acid receptor PYR1 with V151N, D155I
# B10: T156H: PYR1 mutant (protein, UniProt O49686 1-191, looked up, variant T156H)
# Abscisic acid receptor PYR1: B1 Abscisic acid receptor PYR1 with V151N, T156H
# B11: N151K: PYR1 mutant (protein, UniProt O49686 1-191, looked up, variant N151K)
# Abscisic acid receptor PYR1: B1 Abscisic acid receptor PYR1 with V151K
# B12: M158P: PYR1 mutant (protein, UniProt O49686 1-191, looked up, variant M158P)
# Abscisic acid receptor PYR1: B1 Abscisic acid receptor PYR1 with V151N, M158P
# B13: D155F: PYR1 mutant (protein, UniProt O49686 1-191, looked up, variant D155F)
# Abscisic acid receptor PYR1: B1 Abscisic acid receptor PYR1 with V151N, D155F
# B14: N151I: PYR1 mutant (protein, UniProt O49686 1-191, looked up, variant N151I)
# Abscisic acid receptor PYR1: B1 Abscisic acid receptor PYR1 with V151I
# B15: T156D: PYR1 mutant (protein, UniProt O49686 1-191, looked up, variant T156D)
# Abscisic acid receptor PYR1: B1 Abscisic acid receptor PYR1 with V151N, T156D
# B16: T156K: PYR1 mutant (protein, UniProt O49686 1-191, looked up, variant T156K)
# Abscisic acid receptor PYR1: B1 Abscisic acid receptor PYR1 with V151N, T156K
# B17: T156M: PYR1 mutant (protein, UniProt O49686 1-191, looked up, variant T156M)
# Abscisic acid receptor PYR1: B1 Abscisic acid receptor PYR1 with V151N, T156M
# B18: D155R: PYR1 mutant (protein, UniProt O49686 1-191, looked up, variant D155R)
# Abscisic acid receptor PYR1: B1 Abscisic acid receptor PYR1 with V151N, D155R
# B19: T156P: PYR1 mutant (protein, listed as Arabidopsis thaliana)
# chain: B1 Abscisic acid receptor PYR1 with V151N, T156P
# B20: N151C: PYR1 mutant (protein, UniProt O49686 1-191, looked up, variant N151C)
# Abscisic acid receptor PYR1: B1 Abscisic acid receptor PYR1 with V151C
# B21: F159R: PYR1 mutant (protein, UniProt O49686 1-191, looked up, variant F159R)
# Abscisic acid receptor PYR1: B1 Abscisic acid receptor PYR1 with V151N, F159R
# B22: N151F: PYR1 mutant (protein, UniProt O49686 1-191, looked up, variant N151F)
# Abscisic acid receptor PYR1: B1 Abscisic acid receptor PYR1 with V151F
# B23: N151E: PYR1 mutant (protein, UniProt O49686 1-191, looked up, variant N151E)
# Abscisic acid receptor PYR1: B1 Abscisic acid receptor PYR1 with V151E
# B24: D155K: PYR1 mutant (protein, UniProt O49686 1-191, looked up, variant D155K)
# Abscisic acid receptor PYR1: B1 Abscisic acid receptor PYR1 with V151N, D155K
# B25: N151H: PYR1 mutant (protein, UniProt O49686 1-191, looked up, variant N151H)
# Abscisic acid receptor PYR1: B1 Abscisic acid receptor PYR1 with V151H
# B26: T156I: PYR1 mutant (protein, UniProt O49686 1-191, looked up, variant T156I)
# Abscisic acid receptor PYR1: B1 Abscisic acid receptor PYR1 with V151N, T156I
# B27: T156F: PYR1 mutant (protein, UniProt O49686 1-191, looked up, variant T156F)
# Abscisic acid receptor PYR1: B1 Abscisic acid receptor PYR1 with V151N, T156F
# B28: D155G: PYR1 mutant (protein, UniProt O49686 1-191, looked up, variant D155G)
# Abscisic acid receptor PYR1: B1 Abscisic acid receptor PYR1 with V151N, D155G
# B29: N151G: PYR1 mutant (protein, UniProt O49686 1-191, looked up, variant N151G)
# Abscisic acid receptor PYR1: B1 Abscisic acid receptor PYR1 with V151G
# B30: D155C: PYR1 mutant (protein, UniProt O49686 1-191, looked up, variant D155C)
# Abscisic acid receptor PYR1: B1 Abscisic acid receptor PYR1 with V151N, D155C
# B31: T156E: PYR1 mutant (protein, UniProt O49686 1-191, looked up, variant T156E)
# Abscisic acid receptor PYR1: B1 Abscisic acid receptor PYR1 with V151N, T156E
# B32: F159W: PYR1 mutant (protein, UniProt O49686 1-191, looked up, variant F159W)
# Abscisic acid receptor PYR1: B1 Abscisic acid receptor PYR1 with V151N, F159W
# B33: D155V: PYR1 mutant (protein, UniProt O49686 1-191, looked up, variant D155V)
# Abscisic acid receptor PYR1: B1 Abscisic acid receptor PYR1 with V151N, D155V
# B34: D155M: PYR1 mutant (protein, UniProt O49686 1-191, looked up, variant D155M)
# Abscisic acid receptor PYR1: B1 Abscisic acid receptor PYR1 with V151N, D155M
# B35: N151W: PYR1 mutant (protein, UniProt O49686 1-191, looked up, variant N151W)
# Abscisic acid receptor PYR1: B1 Abscisic acid receptor PYR1 with V151W
# B36: D155L: PYR1 mutant (protein, UniProt O49686 1-191, looked up, variant D155L)
# Abscisic acid receptor PYR1: B1 Abscisic acid receptor PYR1 with V151N, D155L
# B37: T156R: PYR1 mutant (protein, UniProt O49686 1-191, looked up, variant T156R)
# Abscisic acid receptor PYR1: B1 Abscisic acid receptor PYR1 with V151N, T156R
# B38: D155Y: PYR1 mutant (protein, UniProt O49686 1-191, looked up, variant D155Y)
# Abscisic acid receptor PYR1: B1 Abscisic acid receptor PYR1 with V151N, D155Y
# B39: F159Q: PYR1 mutant (protein, UniProt O49686 1-191, looked up, variant F159Q)
# Abscisic acid receptor PYR1: B1 Abscisic acid receptor PYR1 with V151N, F159Q
# B40: T156Y: PYR1 mutant (protein, UniProt O49686 1-191, looked up, variant T156Y)
# Abscisic acid receptor PYR1: B1 Abscisic acid receptor PYR1 with V151N, T156Y
# B41: T156N: PYR1 mutant (protein, UniProt O49686 1-191, looked up, variant T156N)
# Abscisic acid receptor PYR1: B1 Abscisic acid receptor PYR1 with V151N, T156N
# B42: F159N: PYR1 mutant (protein, UniProt O49686 1-191, looked up, variant F159N)
# Abscisic acid receptor PYR1: B1 Abscisic acid receptor PYR1 with V151N, F159N
# B43: D155W: PYR1 mutant (protein, UniProt O49686 1-191, looked up, variant D155W)
# Abscisic acid receptor PYR1: B1 Abscisic acid receptor PYR1 with V151N, D155W
# B44: F159S: PYR1 mutant (protein, UniProt O49686 1-191, looked up, variant F159S)
# Abscisic acid receptor PYR1: B1 Abscisic acid receptor PYR1 with V151N, F159S
# B45: N151Y: PYR1 mutant (protein, UniProt O49686 1-191, looked up, variant N151Y)
# Abscisic acid receptor PYR1: B1 Abscisic acid receptor PYR1 with V151Y
# Tested on: HAB1
# Assay: Yeast two hybrid of pBD-PYR1 site saturation mutants with pACT-HAB1 on 10 μM ABA, β-galactosidase staining
# Assay type: cell-based, Arabidopsis
# Design: key: x: Mutations in PYR1 that disrupt ABA-induced binding to PYR1 to HAB1
# Details: S. cerevisiae Y190, 10 μM ABA; dead = lack of visible staining in comparison to wild type control
# Procedure, shortened: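 Binding was read by β-galactosidase staining of chloroform-lysed colonies after 2 days at 30° C on SD (-Leu, -Trp) plates containing 10 μM (+)-ABA. Yeast strain Y190 carried the BD-PYR1 single-substitution mutants plus the AD-HAB1 fusion. Absence of staining versus the wild-type control defined "dead" mutants.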
row,Mutations in PYR1 that disrupt ABA-induced binding to PYR1 to HAB1,Molecule
1,x,B1
2,x,B2
3,x,B3
4,x,B4
5,x,B5
6,x,B6
7,x,B7
8,x,B8
9,x,B9
10,x,B10
11,x,B11
12,x,B12
13,x,B13
14,x,B14
15,x,B15
16,x,B16
17,x,B17
18,x,B18
19,x,B19
20,x,B20
21,x,B21
22,x,B22
23,x,B23

row,Mutations in PYR1 that disrupt ABA-induced binding to PYR1 to HAB1,Molecule
1,x,B24
2,x,B25
3,x,B26
4,x,B27
5,x,B28
6,x,B29
7,x,B30
8,x,B31
9,x,B32
10,x,B33
11,x,B34
12,x,B35
13,x,B36
14,x,B37
15,x,B38
16,x,B39
17,x,B40
18,x,B41
19,x,B42
20,x,B43
21,x,B44
22,x,B45
